Columns and labels:
[1] = molecular target: T1, mesencephalic astrocyte-derived neurotrophic factor (Manf), recombinant (UniProt P55145 25-182); assay: MST
[2] = molecular target: T2, brain-derived neurotrophic factor (BDNF) (UniProt P23560 19-247); assay: MST
T2 sequence (looked up): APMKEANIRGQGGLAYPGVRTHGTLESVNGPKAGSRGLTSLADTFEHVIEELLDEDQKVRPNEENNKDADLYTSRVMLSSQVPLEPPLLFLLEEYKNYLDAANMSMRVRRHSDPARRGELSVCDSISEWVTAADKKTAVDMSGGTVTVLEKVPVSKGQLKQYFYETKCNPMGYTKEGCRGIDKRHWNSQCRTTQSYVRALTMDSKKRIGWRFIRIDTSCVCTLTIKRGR

[3] = molecular target: T1, mesencephalic astrocyte-derived …; assay: ELISA

Kd [1]: 34.6 ± 7.19 nM
Kd [2]: 1740 ± 410 nM
Kd [3]: 14.5 ± 1.17 nM
B1: recombinant Np55 protein, extracellular domain (SinoBiological) (domain or fragment)
chain: QNEPRIVTSEEVIIRDSPVLPVTLQCNLTSSSHTLTYSYWTKNGVELSATRKNASNMEYRINKPRAEDSGEYHCVYHFVSAPKANATIEVKAAPDITGHKRSENKNEGQDATMYCKSVGYPHPDWIWRKKENGMPMDIVNTSGRFFIINKENYTELNIVNLQITEDPGEYECNATNAIGSASVVTVLRVRSHLAP
modifications: RED-NHS fluorescent label (in the MST assay only)

— PMC12685124 (Proceedings of the National Academy of Sciences of the …, 2025)
